B1: KefC WT*-GFP fusion [Escherichia coli] / itself (parent)
chain: MDSHTLIQALIYLGSAALIVPIAVRLGLGSVLGYLIAGCIIGPWGLRLVTDAESILHFAEIGVVLMLFIIGLELDPQRLWKLRAAVFGCGALQMVICGGLLGLFCMLLGLRWQVAELIGMTLALSSTAIAMQAMNERNLMVTQMGRSAFAVLLFQDIAAIPLVAMIPLLATSSASTTMGAFALSALKVAGALVLVVLLGRYVTRPALRFVARSGLREVFSAVALFLVFGFGLLLEEVGLSMAMGAFLAGVLLASSEYRHALESDIEPFKGLLLGLFFIGVGMSIDFGTLLENPLRIVILLLGFLIIKIAMLWLIARPLQVPNKQRRWFAVLLGQGSEFAFVVFGAAQMANVLEPEWAKSLTLAVALSMAATPILLVILNRLEQSSTEEAREADEIDEEQPRVIIAGFGRFGQITGRLLLSSGVKMVVLDHDPDHIETLRKFGMKVFYGDATRMDLLESAGAAKAEVLINAIDDPQTNLQLTEMVKEHFPHLQIIARARDVDHYIRLRQAGVEKPERETFEGALKTGRLALESLGLGPYEARERADVFRRFNIQMVEEMAM

Variants of: B1
Test: FSEC of DDM solubilized membranes after heating
Design: unit not given here
Details: with itself; 10 mins at 60 °C; 1 mM AMP; read off a plot

Q: How did the screen value turn out when MDSHTLIQALIYLGSAALIVPIAVRLGLGSVLGYLIAGCIIGPWGLRLVTDAESILHFAEIGVVLMLFIIGLELDPQRLWKLRAAVFGCGALQMVICGGLLGLFCMLLGLRWQVAELIGMTLALSSTAIAMQAMNERNLMVTQMGRSAFAVLLFQDIAAIPLVAMIPLLATSSASTTMGAFALSALKVAGALVLVVLLGRYVTRPALRFVARSGLREVFSAVALFLVFGFGLLLEEVGLSMAMGAFLAGVLLASSEYRHALESDIEPFKGLLLGLFFIGVGMSIDFGTLLENPLRIVILLLGFLIIKIAMLWLIARPLQVPNKQRRWFAVLLGQGSEFAFVVFGAAQMANVLEPEWAKSLTLAVALSMAATPILLVILNRLEQSSTEEAREADEIDEEQPRVIIAGFGRFGQITGRLLLSSGVKMVVLDHDPDHIETLRKFGMKVFYGDATRMDLLESAGAAKAEVLINAIDDPQTNLQLTEMVKEHFPHLQIIARARDVDHYIRLRQAGVEKPERETFEGALKTGRLALESLGLGPYEAREAADVFRRFNIQMVEEMAM [chain 1 R543A] was run?
A: 2.5

Q: How did the screen value turn out when MDSHTLIQALIYLGSAALIVPIAVRLGLGSVLGYLIAGCIIGPWGLRLVTDAESILHFAEIGVVLMLFIIGLELDPQRLWKLRAAVFGCGALQMVICGGLLGLFCMLLGLRWQVAELIGMTLALSSTAIAMQAMNERNLMVTQMGRSAFAVLLFQDIAAIPLVAMIPLLATSSASTTMGAFALSALKVAGALVLVVLLGRYVTRPALRFVARSGLREVFSAVALFLVFGFGLLLEEVGLSMAMGAFLAGVLLASSEYRAALESDIEPFKGLLLGLFFIGVGMSIDFGTLLENPLRIVILLLGFLIIKIAMLWLIARPLQVPNKQRRWFAVLLGQGSEFAFVVFGAAQMANVLEPEWAKSLTLAVALSMAATPILLVILNRLEQSSTEEAREADEIDEEQPRVIIAGFGRFGQITGRLLLSSGVKMVVLDHDPDHIETLRKFGMKVFYGDATRMDLLESAGAAKAEVLINAIDDPQTNLQLTEMVKEHFPHLQIIARARDVDHYIRLRQAGVEKPERETFEGALKTGRLALESLGLGPYEARERADVFRRFNIQMVEEMAM [chain 1 H259A] was run?
A: 6.5

Q: With MDSHTLIQALIYLGSAALIVPIAVRLGLGSVLGYLIAGCIIGPWGLRLVTDAESILHFAEIGVVLMLFIIGLELDPQRLWKLRAAVFGCGALQMVICGGLLGLFCMLLGLRWQVAELIGMTLALSSTAIAMQAMNERNLMVTQMGRSAFAVLLFQDIAAIPLVAMIPLLATSSASTTMGAFALSALKVAGALVLVVLLGRYVTRPALRFVARSGLREVFSAVALFLVFGFGLLLEEVGLSMAMGAFLAGVLLASSEYRHALESDIEPFKGLLLGLFFIGVGMSIDFGTLLENPLRIVILLLGFLIIKIAMLWLIARPLQVPNKQRRWFAVLLGQGSEFAFVVFGAAQMANVLEPEWAKSLTLAVALSMAATPILLVILNRLEQSSTEEAREADEIDEEQPAVIIAGFGRFGQITGRLLLSSGVKMVVLDHDPDHIETLRKFGMKVFYGDATRMDLLESAGAAKAEVLINAIDDPQTNLQLTEMVKEHFPHLQIIARARDVDHYIRLRQAGVEKPERETFEGALKTGRLALESLGLGPYEARERADVFRRFNIQMVEEMAM [chain 1 R401A] as the variant, how does the screen value read?
A: 74

Q: For MDSHTLIQALIYLGSAALIVPIAVRLGLGSVLGYLIAGCIIGPWGLRLVTDAESILHFAEIGVVLMLFIIGLELDPQRLWKLRAAVFGCGALQMVICGGLLGLFCMLLGLRWQVAELIGMTLALSSTAIAMQAMNERNLMVTQMGRSAFAVLLFQDIAAIPLVAMIPLLATSSASTTMGAFALSALKVAGALVLVVLLGRYVTRPALRFVARSGLREVFSAVALFLVFGFGLLLEEVGLSMAMGAFLAGVLLASSEYRHALESDIEPFKGLLLGLFFIGVGMSIDFGTLLENPLRIVILLLGFLIIKIAMLWLIARPLQVPNKQRRWFAVLLGQGSEFAFVVFGAAQMANVLEPEWAKSLTLAVALSMAATPILLVILNRLEQSSTEEAREADEIDEEQPRVIIAGFGRFGQITGRLLLSSGVKMVVLDHDPDHIETLRKFGMKVFYGDATRMDLLESAGAAKAAVLINAIDDPQTNLQLTEMVKEHFPHLQIIARARDVDHYIRLRQAGVEKPERETFEGALKTGRLALESLGLGPYEARERADVFRRFNIQMVEEMAM [chain 1 E465A], which screen value is on record?
A: 5.5

Q: Which screen value does the source give for MDSHTLIQALIYLGSAALIVPIAVRLGLGSVLGYLIAGCIIGPWGLRLVTDAESILHFAEIGVVLMLFIIGLELDPQRLWALRAAVFGCGALQMVICGGLLGLFCMLLGLRWQVAELIGMTLALSSTAIAMQAMNERNLMVTQMGRSAFAVLLFQDIAAIPLVAMIPLLATSSASTTMGAFALSALKVAGALVLVVLLGRYVTRPALRFVARSGLREVFSAVALFLVFGFGLLLEEVGLSMAMGAFLAGVLLASSEYRHALESDIEPFKGLLLGLFFIGVGMSIDFGTLLENPLRIVILLLGFLIIKIAMLWLIARPLQVPNKQRRWFAVLLGQGSEFAFVVFGAAQMANVLEPEWAKSLTLAVALSMAATPILLVILNRLEQSSTEEAREADEIDEEQPRVIIAGFGRFGQITGRLLLSSGVKMVVLDHDPDHIETLRKFGMKVFYGDATRMDLLESAGAAKAEVLINAIDDPQTNLQLTEMVKEHFPHLQIIARARDVDHYIRLRQAGVEKPERETFEGALKTGRLALESLGLGPYEARERADVFRRFNIQMVEEMAM [chain 1 K81A] here?
A: 10

Q: With MDSHTLIQALIYLGSAALIVPIAVRLGLGSVLGYLIAGCIIGPWGLRLVTDAESILHFAEIGVVLMLFIIGLELDPQRLWKLRAAVFGCGALQMVICGGLLGLFCMLLGLRWQVAELIGMTLALSSTAIAMQAMAERNLMVTQMGRSAFAVLLFQDIAAIPLVAMIPLLATSSASTTMGAFALSALKVAGALVLVVLLGRYVTRPALRFVARSGLREVFSAVALFLVFGFGLLLEEVGLSMAMGAFLAGVLLASSEYRHALESDIEPFKGLLLGLFFIGVGMSIDFGTLLENPLRIVILLLGFLIIKIAMLWLIARPLQVPNKQRRWFAVLLGQGSEFAFVVFGAAQMANVLEPEWAKSLTLAVALSMAATPILLVILNRLEQSSTEEAREADEIDEEQPRVIIAGFGRFGQITGRLLLSSGVKMVVLDHDPDHIETLRKFGMKVFYGDATRMDLLESAGAAKAEVLINAIDDPQTNLQLTEMVKEHFPHLQIIARARDVDHYIRLRQAGVEKPERETFEGALKTGRLALESLGLGPYEARERADVFRRFNIQMVEEMAM [chain 1 N135A] as the variant, how does the screen value read?
A: 89

Q: Which screen value does the source give for MDSHTLIQALIYLGSAALIVPIAVRLGLGSVLGYLIAGCIIGPWGLRLVTDAESILHFAEIGVVLMLFIIGLELDPQRLWKLRAAVFGCGALQMVICGGLLGLFCMLLGLRWQVAELIGMTLALSSTAIAMQAMNERNLMVTQMGASAFAVLLFQDIAAIPLVAMIPLLATSSASTTMGAFALSALKVAGALVLVVLLGRYVTRPALRFVARSGLREVFSAVALFLVFGFGLLLEEVGLSMAMGAFLAGVLLASSEYRHALESDIEPFKGLLLGLFFIGVGMSIDFGTLLENPLRIVILLLGFLIIKIAMLWLIARPLQVPNKQRRWFAVLLGQGSEFAFVVFGAAQMANVLEPEWAKSLTLAVALSMAATPILLVILNRLEQSSTEEAREADEIDEEQPRVIIAGFGRFGQITGRLLLSSGVKMVVLDHDPDHIETLRKFGMKVFYGDATRMDLLESAGAAKAEVLINAIDDPQTNLQLTEMVKEHFPHLQIIARARDVDHYIRLRQAGVEKPERETFEGALKTGRLALESLGLGPYEARERADVFRRFNIQMVEEMAM [chain 1 R146A] here?
A: 86

From article PMC11150392, “Structure and mechanism of the K^+/H^+ exchanger KefC” (Nature Communications, 2024)
